Here are results for two substances from paper PMC11934185.

Common to all, as to assay: LC-MS of Fabs digested from co-expressed IgG
In assay [1] the target is ustekinumab heavy chain, CH1 design 1039, knob CH3 (human).
Assay [2] concerns the target panitumumab heavy chain, WT CH1, hole CH3 (human).
Assay [3] deals with ustekinumab heavy chain, WT CH1, knob CH3 (human).
The target of assay [4] is panitumumab heavy chain, CH1 design 367, hole CH3 (human).
Assay [5] has as its target panitumumab heavy chain, CH1 design 1443, hole CH3 (human).
Assay [6] addresses panitumumab heavy chain, CH1 of designs 1148 and 454 (L145S), hole CH3 (human).
The target in assay [7] is panitumumab heavy chain, CH1 design 767, hole CH3 (human).
The target of assay [8] is panitumumab heavy chain, CH1 of designs 1328 and 838 (G166K, T187K), hole CH3 (human).
Assay [9] deals with panitumumab heavy chain, CH1 design 1039, hole CH3 (human).
The target in assay [10] is panitumumab heavy chain, CH1 design 2529, hole CH3 (human).

Consider panitumumab light chain, WT Cκ, for which the % of observed Fabs (co-expressed: m40) in [1] worked out at 18%. In assay [2], this substance came in with a % of observed Fabs (co-expressed: m3) of 41% and a % of observed Fabs (co-expressed: m38) of 54%. The % of observed Fabs (co-expressed: m3) in assay [3] was determined as 21%.
In assay [2], ustekinumab light chain, WT Cκ gave a % of observed Fabs (co-expressed: m3) of 8%. Also, the % of observed Fabs (co-expressed: m13) in assay [4] is 8%. Also, the % of observed Fabs (co-expressed: m3) in assay [5] was found to be 8%. The % of observed Fabs (co-expressed: m34) in assay [6] worked out at 10%. In assay [7], this substance yielded a % of observed Fabs (co-expressed: m25) of 10%. This substance had a % of observed Fabs (co-expressed: m17) in assay [8] of 6%. Besides, the % of observed Fabs (co-expressed: m3) in assay [9] worked out at 10%. Further, in assay [3], the % of observed Fabs (co-expressed: m7) is 50%, the % of observed Fabs (co-expressed: m17) was 50%, the % of observed Fabs (co-expressed: m21) came out at 41% and the % of observed Fabs (co-expressed: m23) worked out at 45%. Moreover, in assay [3], the % of observed Fabs (co-expressed: m25) was found to be 41%, the % of observed Fabs (co-expressed: m27) was determined as 40%, the % of observed Fabs (co-expressed: m30) was determined as 40% and the % of observed Fabs (co-expressed: m32) was found to be 41%. For the same substance, the % of observed Fabs (co-expressed: m36) in assay [3] came to 45%. This substance returned a % of observed Fabs (co-expressed: m11) in assay [10] of 18%.
